Reference: US11965039B2, “Compstatin analogues and their medical uses” (priority 2018, dated 2024)
Starred links: 1 amine or outer side, 2 acyl side, 3 side chain; linkers in the order of their positions; H or OH if unused. Positions of bridges follow the written chain, without caps; N, C: chain ends. Non-standard residues stand in square brackets, D forms with d. X1 = K(γGlu-G-γGlu-17-carboxy-heptadecanoyl), O=C(O)CCCCCCCCCCCCCCCCC(=O)N[C@@H](CCC(=O)NCC(=O)N[C@@H](CCC(=O)NCCCC[C@H](N[*:1])C(=O)[*:2])C(=O)O)C(=O)O; Trp(1-Me) = Cn1cc(C[C@H](N)C(=O)O)c2ccccc21; AEEA = NCCOCCOCC(=O)O; Sar = CNCC(=O)O

Each binder was assayed against Human C3 (Complement tech cat #A113c) (human, UniProt P01024 23-1663) (assay: cell-based or functional assay).
Human C3 (Complement tech cat #A113c), sequence (P01024 23-1663 limits assumed): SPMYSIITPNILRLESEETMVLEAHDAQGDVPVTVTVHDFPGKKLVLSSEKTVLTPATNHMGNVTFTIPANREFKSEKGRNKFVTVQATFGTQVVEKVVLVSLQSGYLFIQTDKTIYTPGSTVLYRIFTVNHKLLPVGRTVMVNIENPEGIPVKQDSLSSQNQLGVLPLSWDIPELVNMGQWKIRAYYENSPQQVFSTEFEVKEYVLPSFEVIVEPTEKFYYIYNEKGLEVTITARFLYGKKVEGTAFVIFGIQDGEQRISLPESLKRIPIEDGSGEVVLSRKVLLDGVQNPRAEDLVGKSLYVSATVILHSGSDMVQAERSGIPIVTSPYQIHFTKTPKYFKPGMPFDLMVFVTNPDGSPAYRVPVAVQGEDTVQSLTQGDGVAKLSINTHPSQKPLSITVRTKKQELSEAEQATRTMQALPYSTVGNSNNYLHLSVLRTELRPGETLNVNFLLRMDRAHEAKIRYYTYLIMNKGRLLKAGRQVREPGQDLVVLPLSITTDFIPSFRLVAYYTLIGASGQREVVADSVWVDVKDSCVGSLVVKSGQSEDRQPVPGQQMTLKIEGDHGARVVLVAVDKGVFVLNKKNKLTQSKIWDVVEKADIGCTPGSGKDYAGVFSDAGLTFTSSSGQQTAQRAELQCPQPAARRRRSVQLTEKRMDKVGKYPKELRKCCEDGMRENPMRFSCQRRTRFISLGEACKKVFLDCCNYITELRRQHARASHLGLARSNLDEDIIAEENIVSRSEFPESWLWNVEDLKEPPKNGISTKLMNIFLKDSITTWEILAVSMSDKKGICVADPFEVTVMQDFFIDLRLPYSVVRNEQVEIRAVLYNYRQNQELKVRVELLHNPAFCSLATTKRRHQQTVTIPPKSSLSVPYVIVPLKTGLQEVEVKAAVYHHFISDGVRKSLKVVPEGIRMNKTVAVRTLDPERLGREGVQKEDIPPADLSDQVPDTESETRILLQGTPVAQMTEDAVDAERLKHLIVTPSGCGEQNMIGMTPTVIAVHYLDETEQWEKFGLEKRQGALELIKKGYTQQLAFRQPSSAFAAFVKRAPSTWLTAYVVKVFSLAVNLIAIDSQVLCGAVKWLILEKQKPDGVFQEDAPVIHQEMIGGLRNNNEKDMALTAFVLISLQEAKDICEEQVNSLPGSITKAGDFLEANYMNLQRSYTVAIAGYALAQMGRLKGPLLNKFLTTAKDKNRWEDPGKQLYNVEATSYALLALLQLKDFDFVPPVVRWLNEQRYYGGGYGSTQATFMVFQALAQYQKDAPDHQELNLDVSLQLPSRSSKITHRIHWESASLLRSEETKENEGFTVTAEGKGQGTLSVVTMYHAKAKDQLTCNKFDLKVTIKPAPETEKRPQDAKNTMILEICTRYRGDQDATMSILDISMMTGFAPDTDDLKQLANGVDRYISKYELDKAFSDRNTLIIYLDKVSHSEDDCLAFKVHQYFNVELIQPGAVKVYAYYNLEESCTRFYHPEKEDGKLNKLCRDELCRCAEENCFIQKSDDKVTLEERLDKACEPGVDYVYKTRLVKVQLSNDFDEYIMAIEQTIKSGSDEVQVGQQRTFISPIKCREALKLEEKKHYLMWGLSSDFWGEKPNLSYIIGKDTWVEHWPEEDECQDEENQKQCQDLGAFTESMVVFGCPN

| Binder | inhibition of hemolysis IC50 |
| --- | --- |
| Ac-EFCI[Trp(1-Me)]QDWGEHRC[Sar]EA-{AEEA-AEEA-X1-NH2} (disulfide 3-13; SMILES CC[C@H](C)[C@@H]1NC(=O)[C@@H](NC(=O)[C@H](Cc2ccccc2)NC(=O)[C@H](CCC(=O)O)NC(C)=O)CSSC[C@@H](C(=O)N(C)CC(=O)N[C@@H](CCC(=O)O)C(=O)N[C@@H](C)C(=O)NCCOCCOCC(=O)NCCOCCOCC(=O)N[C@@H](CCCCNC(=O)CC[C@H](NC(=O)CNC(=O)CC[C@H](NC(=O)CCCCCCCCCCCCCCCCC(=O)O)C(=O)O)C(=O)O)C(N)=O)NC(=O)[C@H](CCCNC(=N)N)NC(=O)[C@H](Cc2c[nH]cn2)NC(=O)[C@H](CCC(=O)O)NC(=O)CNC(=O)[C@H](Cc2c[nH]c3ccccc23)NC(=O)[C@H](CC(=O)O)NC(=O)[C@H](CCC(N)=O)NC(=O)[C@H](Cc2cn(C)c3ccccc23)NC1=O) [Compound 145] | < 100 nM |
| Ac-SEFCI[Trp(1-Me)]QDWGEHRC[Sar]EGE-{AEEA-AEEA-AEEA-X1-NH2} (disulfide 4-14; SMILES CC[C@H](C)[C@@H]1NC(=O)[C@@H](NC(=O)[C@H](Cc2ccccc2)NC(=O)[C@H](CCC(=O)O)NC(=O)[C@H](CO)NC(C)=O)CSSC[C@@H](C(=O)N(C)CC(=O)N[C@@H](CCC(=O)O)C(=O)NCC(=O)N[C@@H](CCC(=O)O)C(=O)NCCOCCOCC(=O)NCCOCCOCC(=O)NCCOCCOCC(=O)N[C@@H](CCCCNC(=O)CC[C@H](NC(=O)CNC(=O)CC[C@H](NC(=O)CCCCCCCCCCCCCCCCC(=O)O)C(=O)O)C(=O)O)C(N)=O)NC(=O)[C@H](CCCNC(=N)N)NC(=O)[C@H](Cc2c[nH]cn2)NC(=O)[C@H](CCC(=O)O)NC(=O)CNC(=O)[C@H](Cc2c[nH]c3ccccc23)NC(=O)[C@H](CC(=O)O)NC(=O)[C@H](CCC(N)=O)NC(=O)[C@H](Cc2cn(C)c3ccccc23)NC1=O) [Compound 143] | < 100 nM |
| Ac-SEFCI[Trp(1-Me)]QDWGEHRC[Sar]EGE-{AEEA-X1-NH2} (disulfide 4-14; SMILES CC[C@H](C)[C@@H]1NC(=O)[C@@H](NC(=O)[C@H](Cc2ccccc2)NC(=O)[C@H](CCC(=O)O)NC(=O)[C@H](CO)NC(C)=O)CSSC[C@@H](C(=O)N(C)CC(=O)N[C@@H](CCC(=O)O)C(=O)NCC(=O)N[C@@H](CCC(=O)O)C(=O)NCCOCCOCC(=O)N[C@@H](CCCCNC(=O)CC[C@H](NC(=O)CNC(=O)CC[C@H](NC(=O)CCCCCCCCCCCCCCCCC(=O)O)C(=O)O)C(=O)O)C(N)=O)NC(=O)[C@H](CCCNC(=N)N)NC(=O)[C@H](Cc2c[nH]cn2)NC(=O)[C@H](CCC(=O)O)NC(=O)CNC(=O)[C@H](Cc2c[nH]c3ccccc23)NC(=O)[C@H](CC(=O)O)NC(=O)[C@H](CCC(N)=O)NC(=O)[C@H](Cc2cn(C)c3ccccc23)NC1=O) [Compound 138] | < 100 nM |
| Ac-ICIWQDWGEHRC[Sar]-NH2 (disulfide 2-12; SMILES CC[C@H](C)[C@H](NC(C)=O)C(=O)N[C@H]1CSSC[C@@H](C(=O)N(C)CC(N)=O)NC(=O)[C@H](CCCNC(=N)N)NC(=O)[C@H](Cc2c[nH]cn2)NC(=O)[C@H](CCC(=O)O)NC(=O)CNC(=O)[C@H](Cc2c[nH]c3ccccc23)NC(=O)[C@H](CC(=O)O)NC(=O)[C@H](CCC(N)=O)NC(=O)[C@H](Cc2c[nH]c3ccccc23)NC(=O)[C@H]([C@@H](C)CC)NC1=O) [Compound 13] | < 100 nM |
| Ac-YCIWQDWGEHRCT-NH2 (disulfide 2-12; SMILES CC[C@H](C)[C@@H]1NC(=O)[C@@H](NC(=O)[C@H](Cc2ccc(O)cc2)NC(C)=O)CSSC[C@@H](C(=O)N[C@H](C(N)=O)[C@@H](C)O)NC(=O)[C@H](CCCNC(=N)N)NC(=O)[C@H](Cc2c[nH]cn2)NC(=O)[C@H](CCC(=O)O)NC(=O)CNC(=O)[C@H](Cc2c[nH]c3ccccc23)NC(=O)[C@H](CC(=O)O)NC(=O)[C@H](CCC(N)=O)NC(=O)[C@H](Cc2c[nH]c3ccccc23)NC1=O) [Compound 9] | < 100 nM |
| Ac-SEFCI[Trp(1-Me)]QDW[Sar]EHRC[Sar]E-{AEEA-AEEA-X1-NH2} (disulfide 4-14; SMILES CC[C@H](C)[C@@H]1NC(=O)[C@@H](NC(=O)[C@H](Cc2ccccc2)NC(=O)[C@H](CCC(=O)O)NC(=O)[C@H](CO)NC(C)=O)CSSC[C@@H](C(=O)N(C)CC(=O)N[C@@H](CCC(=O)O)C(=O)NCCOCCOCC(=O)NCCOCCOCC(=O)N[C@@H](CCCCNC(=O)CC[C@H](NC(=O)CNC(=O)CC[C@H](NC(=O)CCCCCCCCCCCCCCCCC(=O)O)C(=O)O)C(=O)O)C(N)=O)NC(=O)[C@H](CCCNC(=N)N)NC(=O)[C@H](Cc2c[nH]cn2)NC(=O)[C@H](CCC(=O)O)NC(=O)CN(C)C(=O)[C@H](Cc2c[nH]c3ccccc23)NC(=O)[C@H](CC(=O)O)NC(=O)[C@H](CCC(N)=O)NC(=O)[C@H](Cc2cn(C)c3ccccc23)NC1=O) [Compound 144] | < 100 nM |
| Ac-ICIWQDWGAHRCE-NH2 (disulfide 2-12; SMILES CC[C@H](C)[C@H](NC(C)=O)C(=O)N[C@H]1CSSC[C@@H](C(=O)N[C@@H](CCC(=O)O)C(N)=O)NC(=O)[C@H](CCCNC(=N)N)NC(=O)[C@H](Cc2c[nH]cn2)NC(=O)[C@H](C)NC(=O)CNC(=O)[C@H](Cc2c[nH]c3ccccc23)NC(=O)[C@H](CC(=O)O)NC(=O)[C@H](CCC(N)=O)NC(=O)[C@H](Cc2c[nH]c3ccccc23)NC(=O)[C@H]([C@@H](C)CC)NC1=O) [Compound 12] | < 100 nM |
| Ac-ESSAYCIWQDWGEHRCT-NH2 (disulfide 6-16; SMILES CC[C@H](C)[C@@H]1NC(=O)[C@@H](NC(=O)[C@H](Cc2ccc(O)cc2)NC(=O)[C@H](C)NC(=O)[C@H](CO)NC(=O)[C@H](CO)NC(=O)[C@H](CCC(=O)O)NC(C)=O)CSSC[C@@H](C(=O)N[C@H](C(N)=O)[C@@H](C)O)NC(=O)[C@H](CCCNC(=N)N)NC(=O)[C@H](Cc2c[nH]cn2)NC(=O)[C@H](CCC(=O)O)NC(=O)CNC(=O)[C@H](Cc2c[nH]c3ccccc23)NC(=O)[C@H](CC(=O)O)NC(=O)[C@H](CCC(N)=O)NC(=O)[C@H](Cc2c[nH]c3ccccc23)NC1=O) [Compound 10] | < 100 nM |
| Ac-[Sar]CIWQDWGEHRCT-NH2 (disulfide 2-12; SMILES CC[C@H](C)[C@@H]1NC(=O)[C@@H](NC(=O)CN(C)C(C)=O)CSSC[C@@H](C(=O)N[C@H](C(N)=O)[C@@H](C)O)NC(=O)[C@H](CCCNC(=N)N)NC(=O)[C@H](Cc2c[nH]cn2)NC(=O)[C@H](CCC(=O)O)NC(=O)CNC(=O)[C@H](Cc2c[nH]c3ccccc23)NC(=O)[C@H](CC(=O)O)NC(=O)[C@H](CCC(N)=O)NC(=O)[C@H](Cc2c[nH]c3ccccc23)NC1=O) [Compound 11] | < 100 nM |
